Test results as given in patent US20190367631A1 (Regeneron, published 2019).
Substitutions are numbered along the chain they refer to. Names may count otherwise.

B1: H1H27754P-N297Q (antibody, V domains shown)
VH: EVQLVESGGGLVQPGGSLRLSCAASGFTFRTYAMTWVRQAPGKGLDWVSAITGDGGNTYYADSVKGRFTISRDNSKNTLYLQMNSLRAEDTAIYYCAKDQRFSFALYYFDYWGQGTLVTVSS
VL: DIQMTQSPSSVSASVGDRVTITCRASQGISSWLAWYQQKPGNAPKLLIYAAFSLQSGVPSRFSGSGSGTDFTLTISSLQPEDFATYYCQQANNFPWTFGQGTKVEIKR
notes: Human IgG1 Fc with N297Q point mutation
B2: H2aM21235N (antibody, V domains shown)
VH: EVQLVESGGGLVQPGGSLRLSCAASGFTFSDHYMDWVRQAPGKGLEWVGRTRNKANSYTTEYAASVSGRFTISRDDSKNSLYLQMNSLKTEDTAVYYCTRAGIIGTLFDYWGQGTLVTVSS
VL: DIQMTQSPSSLSASVGDRVTITCRASQIIGRYLNWFQQKPGKVPKLLIYAASSLQRGVPSRFSGSGSGTDFTLTISSLQPEDFATYYCQQSYNTPPITFGQGTRLEIKR
notes: Human variable domains with mouse IgG2a Fc; tied by the numerical identifier
B3: H1H21234N-N297Q (antibody, V domains shown)
VH: QVQLQESGPGLVKPSETLSLTCTVTGGSISRNYWSWIRQPPGKGLEWIGYIYYSGSIDYNPSLKSRVTISVDTSKNQFSLKLSSMTAADTAVYYCARDRWNWKYGMDVWGQGTTVIVSS
VL: EIVLTQSPGTLSLSPGERATLSCRASQTVRNNYLAWYHQKPGQAPRLLIYGASSRATGIPDRFSGSGSGTDFTLTISRLEPEDFTVYYCHQYGNSPWTFGQGTKMEIKR
notes: Human IgG1 Fc with N297Q point mutation (EU numbering)
B4: H1H21234N (antibody, V domains shown)
VH: B3 VH
VL: B3 VL
notes: Original human IgG1 Fc (no N297 mutation)
B5: H2aM25695N (antibody, V domains shown)
VH: B3 VH with D58N, T73M, S83N, M85V
VL: B3 VL with N32S, T85A, H90Q, N94S, P96Y
notes: as for B2
B6: H2aM21229N (antibody, V domains shown)
VH: EVQLVESGGGLVKPGGSLRLSCAASGFTFSRYSMNWVRQAPGKGLEWVSSISSSSSYIYYGDTVKGRFTISRDNAKKSLYLQMNSLRAEDTAVYYCVRDRGQLVLYFDYWGQGTLVTVSS
VL: DIQMTQSPASLSTSIRDRVTITCRASLSISSFLNWFQQRPGKAPKLLIYVASNLQSGVPSRFSDSGSGTDFTLTISSLQPEDFATYYCQQNYSTPPITFGQGTRLEIK
notes: Human variable domains with mouse IgG2a Fc
B7: H2aM21228N (antibody, V domains shown)
VH: VQLVESGGGLVQPGGSLRLSCAASGFTFSDHYMDWVRQAPGKGLEWVGRTRNKANSHTTEYAASVSGRFTISRDDSKNSLYLQMNSLKTEDTAVYYCTRAGIIGTLFDYWGQGTLVTVSS
VL: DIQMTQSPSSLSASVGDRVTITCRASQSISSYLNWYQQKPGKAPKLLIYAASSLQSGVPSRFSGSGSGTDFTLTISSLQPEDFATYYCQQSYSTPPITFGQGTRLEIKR
notes: as for B2
B8: H1H27732P-N297Q (antibody, V domains shown)
VH: QLQLQESGPGLVKPSETLSLTCTVSGGSISSSTYYWGWIRQPPGKGLEWIGSFYYSGSTYYNPSLKSRVTISVGTSKNQFSLKLSSVTAADTAVYFCARGGLLGRPFVIWGQGTMVTVSS
VL: DIQMTQSPSSLSASVGDRVTITCRASQGIRNDLGWYQQKPGKAPKRLIYAASSLQSGVPSRFSGSGSGTEFTLTISSLQPEDFATYYCLQHNSYPLTFGGGTKVEIKR
notes: as for B1

Columns and labels:
[1] = biological target: T1, mouse MSR1 extracellular domain expressed with a N-terminal nonahistidine tag (His9-mMSR1); R&D Systems, Cat … (mouse, UniProt P30204 79-458); test: BLI Octet, 25 C, antibody captured
T1 construct: extracellular domain; not shown: N-terminal nonahistidine tag
T1 sequence (looked up): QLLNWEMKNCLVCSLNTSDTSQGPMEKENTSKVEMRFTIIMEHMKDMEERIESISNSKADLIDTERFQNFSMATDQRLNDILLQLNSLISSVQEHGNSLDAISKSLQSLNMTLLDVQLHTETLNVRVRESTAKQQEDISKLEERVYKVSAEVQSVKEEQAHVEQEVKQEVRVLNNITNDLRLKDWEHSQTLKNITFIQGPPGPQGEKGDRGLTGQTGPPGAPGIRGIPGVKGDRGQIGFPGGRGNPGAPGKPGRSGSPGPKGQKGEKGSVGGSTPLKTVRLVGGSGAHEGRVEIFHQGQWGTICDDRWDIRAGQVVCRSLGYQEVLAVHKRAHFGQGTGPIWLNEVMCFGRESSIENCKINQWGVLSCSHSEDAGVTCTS

[2] = biological target: T2, monkey MSR1 extracellular domain expressed with a N-terminal hexahistidine-myc-myc tag (HMM-mfMSR1) (monkey (Macaca fascicularis)); test: SPR Biacore, 25 C, antibody captured;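 further: rates from 1:1 fit with mass transport limitation of real-time sensorgrams, HEPES-buffered saline with EDTA and Tween-20 at pH 7.4, KD and t½ derived from the kinetic rates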
T2 chain: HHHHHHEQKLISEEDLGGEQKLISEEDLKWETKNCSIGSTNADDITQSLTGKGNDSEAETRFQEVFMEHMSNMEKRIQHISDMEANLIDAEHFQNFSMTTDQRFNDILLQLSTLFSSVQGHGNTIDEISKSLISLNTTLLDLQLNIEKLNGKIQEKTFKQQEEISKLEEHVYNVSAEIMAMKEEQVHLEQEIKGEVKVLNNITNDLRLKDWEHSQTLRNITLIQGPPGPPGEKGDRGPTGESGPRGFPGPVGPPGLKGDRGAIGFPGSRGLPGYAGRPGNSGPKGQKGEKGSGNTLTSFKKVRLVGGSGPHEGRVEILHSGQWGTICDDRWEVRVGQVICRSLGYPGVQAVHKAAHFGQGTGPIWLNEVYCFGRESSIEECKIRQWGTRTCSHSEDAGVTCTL
Protocol: (§1) Binding affinities and kinetic constants of human anti-MSR1 antibodies for different MSR1 reagents were determined by real-time surface plasmon resonance (Biacore 4000). All binding studies were performed in 10 mM HEPES, 150 mM NaCl, 3 mM EDTA, and 0.05% v/v Surfactant Tween-20, pH 7.4 (HBS-ET) running buffer at 25° C. and 37° C.
(§2) The association rate (kₐ) and dissociation rate (kd) were determined by fitting the real-time binding sensorgrams to a 1:1 binding model with mass transport limitation using Scrubber 2.0c curve-fitting software. Binding dissociation equilibrium constant (KD) and dissociative half-life (t½) were calculated from the kinetic rates as:

[3] = biological target: T3, human MSR1 extracellular domain expressed with a N-terminal nonahistidine tag (His9-hMSR1); R&D Systems, Cat … (human, UniProt P21757 77-451); test: SPR Biacore, 37 C, antibody captured
T3 construct: extracellular domain; also called His-hMSR1; 9xHis-hMSR1; not shown: N-terminal nonahistidine tag
T3 sequence (looked up): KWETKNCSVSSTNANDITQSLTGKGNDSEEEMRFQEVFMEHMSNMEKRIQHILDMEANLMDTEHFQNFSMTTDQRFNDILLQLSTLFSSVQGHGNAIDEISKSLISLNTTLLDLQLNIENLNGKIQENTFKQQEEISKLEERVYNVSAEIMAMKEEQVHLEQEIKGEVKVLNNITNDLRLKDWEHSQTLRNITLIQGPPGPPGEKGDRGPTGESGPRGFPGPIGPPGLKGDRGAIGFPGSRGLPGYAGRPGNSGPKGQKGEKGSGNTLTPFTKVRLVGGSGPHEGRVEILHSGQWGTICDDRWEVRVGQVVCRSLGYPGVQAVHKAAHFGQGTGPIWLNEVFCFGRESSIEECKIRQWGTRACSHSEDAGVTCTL

[4] = biological target: T2, monkey MSR1 extracellular domain …; test: SPR Biacore, 37 C, antibody captured
[5] = biological target: T3, human MSR1 extracellular domain …; test: SPR Biacore, 25 C, antibody captured; kd fixed, no dissociation seen
Protocol: as §1, §2

[6] = biological target: T3, human MSR1 extracellular domain …; test: BLI Octet, 25 C, antibody captured
Protocol: (§3) Binding affinities and kinetic constants of human anti-MSR1 antibodies for different MSR1 reagents were determined using a real time, label-free bio-layer interferometry assay on an OCTET® HTX biosensor platform (Pall FortéBio Corp., Menlo Park, Calif.). The experiment was performed at 25° C. in 10 mM HEPES, 150 mM NaCl, 3 mM EDTA, 0.05% v/v Surfactant Tween-20, and 1 mg/mL BSA, pH7.4 (HBS-EBT) buffer with the plate shaking at the speed of 1000 rpm. […] The anti-MSR1 monoclonal antibodies were captured by dipping either anti-human Fc (AHC) or anti-mouse Fc (AMC) Octet biosensors in wells containing 5 pg/mL or 10 pg/mL of anti-MSR1 monoclonal antibody for 45-90 seconds. […] The binding of different MSR1 reagents to the captured anti-MSR1 monoclonal antibody was measured for 4 minutes and the dissociation of monoclonal antibody bound MSR1 reagent was monitored for 8-10 minutes in HBS-EBT buffer.
as §2

[7] = biological target: T2, monkey MSR1 extracellular domain …; test: BLI Octet, 25 C, antibody captured
Protocol: as §3, §2

[8] = biological target: T1, mouse MSR1 extracellular domain …; test: BLI Octet, 25 C, antibody captured; kd fixed, no dissociation seen
Protocol: as §3, §2

[9] = biological target: T3, human MSR1 extracellular domain …; test: SPR Biacore, 37 C, antibody captured; kd fixed, no dissociation seen
Protocol: as §1, §2

[10] = biological target: T2, monkey MSR1 extracellular domain …; test: as above
Protocol: as §1, §2

[11] = biological target: T2, monkey MSR1 extracellular domain …; test: SPR Biacore, 25 C, antibody captured; kd fixed, no dissociation seen
Protocol: as §1, §2

| Binder | binding result [1] | Kd [2] | t½ [2] | Kd [5] | koff [5] | kon [5] | t½ [5] | Kd [6] | t½ [6] | Kd [7] | t½ [7] | koff [6] | kon [6] | koff [7] | kon [7] | other results |
| --- | --- | --- | --- | --- | --- | --- | --- | --- | --- | --- | --- | --- | --- | --- | --- | --- |
| B1 | no binding (tested: 50 nM) | 0.075 nM | 657 min | ≤ 0.0344 nM | ≤ 1e-05 s⁻¹ | 290000 M⁻¹ s⁻¹ | 1160 min |  |  |  |  |  |  |  |  | koff [2]: 1.76e-05 s⁻¹; kon [2]: 235000 M⁻¹ s⁻¹; Kd [3]: 0.0381 nM; koff [3]: 2.53e-05 s⁻¹; kon [3]: 663000 M⁻¹ s⁻¹; t½ [3]: 457 min; Kd [4]: 0.0504 nM; koff [4]: 3.53e-05 s⁻¹; kon [4]: 701000 M⁻¹ s⁻¹; t½ [4]: 327 min |
| B2 | no binding (tested: 100 nM) |  |  |  |  |  |  | 0.378 nM | 252 min | 0.612 nM | 184 min |  |  |  |  |  |
| B3 |  | 0.0466 nM | 593 min | ≤ 0.0201 nM | ≤ 1e-05 s⁻¹ | 497000 M⁻¹ s⁻¹ | 1160 min |  |  |  |  |  |  |  |  | koff [2]: 1.95e-05 s⁻¹; kon [2]: 408000 M⁻¹ s⁻¹; Kd [8]: ≤ 1.31 nM; koff [8]: ≤ 5e-05 s⁻¹; kon [8]: 38200 M⁻¹ s⁻¹; t½ [8]: 231 min; Kd [9]: 0.0127 nM; koff [9]: ≤ 1e-05 s⁻¹; kon [9]: 787000 M⁻¹ s⁻¹; t½ [9]: 1160 min; Kd [10]: 0.0133 nM; koff [10]: ≤ 1e-05 s⁻¹; kon [10]: 750000 M⁻¹ s⁻¹; t½ [10]: 1160 min |
| B4 |  |  |  | ≤ 0.0166 nM | ≤ 1e-05 s⁻¹ | 604000 M⁻¹ s⁻¹ | 1160 min |  |  |  |  |  |  |  |  | Kd [8]: ≤ 1.09 nM; koff [8]: ≤ 5e-05 s⁻¹; kon [8]: 46000 M⁻¹ s⁻¹; t½ [8]: 231 min; Kd [11]: ≤ 0.0298 nM; koff [11]: ≤ 1e-05 s⁻¹; kon [11]: 336000 M⁻¹ s⁻¹; t½ [11]: 1160 min; Kd [9]: 0.0148 nM; koff [9]: ≤ 1e-05 s⁻¹; kon [9]: 676000 M⁻¹ s⁻¹; t½ [9]: 1160 min; Kd [10]: 0.0138 nM; koff [10]: ≤ 1e-05 s⁻¹; kon [10]: 726000 M⁻¹ s⁻¹; t½ [10]: 1160 min |
| B5 | no binding (tested: 100 nM) |  |  |  |  |  |  | 1.46 nM | 22 min | 1.83 nM | 20 min | 0.000527 s⁻¹ | 360000 M⁻¹ s⁻¹ | 0.000571 s⁻¹ | 312000 M⁻¹ s⁻¹ |  |
| B6 | no binding (tested: 100 nM) |  |  |  |  |  |  | 0.7 nM | 55 min | 16.4 nM | 5 min | 0.00021 s⁻¹ | 300000 M⁻¹ s⁻¹ | 0.00222 s⁻¹ | 135000 M⁻¹ s⁻¹ |  |
| B7 | no binding (tested: 100 nM) |  |  |  |  |  |  | 0.954 nM | 100 min | 1.45 nM | 79 min | 0.000116 s⁻¹ | 122000 M⁻¹ s⁻¹ | 0.000146 s⁻¹ | 100000 M⁻¹ s⁻¹ |  |
| B8 | no binding (tested: 50 nM) | 0.248 nM | 364 min | ≤ 0.0801 nM |  |  | 1160 min |  |  |  |  |  |  |  |  | Kd [3]: 0.111 nM; t½ [3]: 370 min; Kd [4]: 0.317 nM; t½ [4]: 109 min |
